{
  "source": "patent US20090291088A1",
  "about": "(Biogen, published 2009)",
  "binders": {"B1": {"name": "M13-C06 Fab (Fab, V domains shown)", "VH": "EVQLLESGGGLVQPGGSLRLSCAASGFTFSIYRMQWVRQAPGKGLEWVSGISPSGGTTWYADSVKGRFTISRDNSKNTLYLQMNSLRAEDTAVYYCARWSGGSGYAFDIWGQGTMVTVSS", "VL": "DIQMTQSPLSLSASVGDRVTITCQASRDIRNYLNWYQQKPGKAPKLLIYDASSLQTGVPSRFGGSGSGTDFSFTIGSLQPEDIATYYCQQFDSLPHTFGQGTKLEIK", "notes": "Human Fab from a phage library, kappa light chain"}},
  "key": {"human INSR(28-956)-His10": {"molecular_target": "T1, human INSR(28-956)-His10 (human, UniProt P06213 28-956)", "T1 construct": "range 28-956; Bought (R&D Systems 1544-IR); also called rh-INSR; soluble insulin receptor", "experiment": "ELISA on coated rh-INSR", "description": "ELISA assays were performed to determine specific binding of the Fab fragment antibodies to soluble IGF-1R over the insulin receptor. […] Color development was stopped by addition of 4NH₂SO₄ and optical density is measured at 450 nm using a Molecular Devices plate reader and binding curves are generated."}, "[1]": {"molecular_target": "T2, human IGF-1R(1-902)-His10 (human, UniProt P08069 31-932)", "T2 construct": "Cy5-labelled in tr-FRET; also called hIGF-1R-His10; IGF-1R-His", "experiment": "SPR, Fab over IGF-1R-10His captured by anti-His", "description": "All surface plasmon resonance (SPR) experiments were performed on a Biacore 3000 set to 25° C. using HBS-EP (Biacore, Cat. No. BR-1001-88) as the running buffer. A biotin-labeled anti-HisTag antibody (biotin-PENTA-His, Qiagen Cat. No. 34440) was immobilized to saturation on a Biacore SA chip (Cat. No. BR-1000-32) surface by injection at 500 nM in HBS-EP buffer. […] Subsequent to IGF-1R injections, flow rates were increased to 20 μL/min. A second, 130 μL injection of anti-IGF-1R antibody or Fab was performed to investigate interactions with the receptor. Each antibody and Fab was serially diluted from 64 nM to 0.5 nM to obtain concentration dependent kinetic binding curves. Each injection series was regenerated using 3×10 μL injections of 10 mM Acetate, pH 4.0, at 20 μL/min. Each curve was double referenced using (1) data obtained from a streptavidin surface devoid of IGF-1R and (2) data from a primary injection of IGF-1R followed by a secondary injection of HBS-EP buffer. The concentration series for each antibody and Fab was fit to the 1:1 binding model provided within the BiaEvaluation software of the manufacturer.\nTo obtain discrete affinities, Fab fragments of each antibody were generated using papain digestion as described above."}, "[2]": {"molecular_target": "T3, hIGF-1R-Fc mutant SD002 (M156A) (human, UniProt P08069 31-933)", "T3 construct": "not shown: C-terminal human IgG1-Fc tag", "experiment": "SPR, M13-C06 Fab over captured mutant", "description": "(§1) After, completion of the receptor-Fc loading step, flow rates were elevated to 5 μl/min. […] At the end of each sensorgram, the flow rate was elevated to 30 μl/min and the chip surface was regenerated by 2×10 μL injections of 0.1 M glycine, pH 2."}, "[3]": {"molecular_target": "T4, hIGF-1R-Fc mutant SD009 (E264K) (human, UniProt P08069 31-933)", "T4 construct": "not shown: C-terminal human IgG1-Fc tag", "experiment": "SPR, M13-C06 Fab over captured mutant", "description": "as §1"}, "[4]": {"molecular_target": "T5, hIGF-1R-Fc mutant SD004 (S210H_A211Q) (human, UniProt P08069 31-933)", "T5 construct": "not shown: C-terminal human IgG1-Fc tag", "experiment": "SPR, M13-C06 Fab over captured mutant", "description": "as §1"}, "[5]": {"molecular_target": "T6, hIGF-1R-Fc mutant SD016 (D531Q_V532N) (human, UniProt P08069 31-933)", "T6 construct": "not shown: C-terminal human IgG1-Fc tag", "experiment": "SPR, M13-C06 Fab over captured mutant", "description": "as §1"}, "[6]": {"molecular_target": "T7, hIGF-1R-Fc mutant SD018 (E665A) (human, UniProt P08069 31-933)", "T7 construct": "not shown: C-terminal human IgG1-Fc tag", "experiment": "SPR, M13-C06 Fab over captured mutant", "description": "as §1"}, "[7]": {"molecular_target": "T8, hIGF-1R-Fc mutant SD017 (I650S) (human, UniProt P08069 31-933)", "T8 construct": "not shown: C-terminal human IgG1-Fc tag", "experiment": "SPR, M13-C06 Fab over captured mutant", "description": "as §1"}, "[8]": {"molecular_target": "T9, hIGF-1R-Fc mutant SD007 (N237G) (human, UniProt P08069 31-933)", "T9 construct": "not shown: C-terminal human IgG1-Fc tag", "experiment": "SPR, M13-C06 Fab over captured mutant", "description": "as §1"}, "[9]": {"molecular_target": "T10, hIGF-1R-Fc mutant SD019 (E739W, L741F) (human, UniProt P08069 31-933)", "T10 construct": "not shown: C-terminal human IgG1-Fc tag", "experiment": "SPR, M13-C06 Fab over captured mutant", "description": "as §1"}, "[10]": {"molecular_target": "T11, hIGF-1R-Fc mutant SD010 (G271D) (human, UniProt P08069 31-933)", "T11 construct": "not shown: C-terminal human IgG1-Fc tag", "experiment": "SPR, M13-C06 Fab over captured mutant", "description": "as §1"}, "[11]": {"molecular_target": "T12, hIGF-1R-Fc mutant SD012 (E303G) (human, UniProt P08069 31-933)", "T12 construct": "not shown: C-terminal human IgG1-Fc tag", "experiment": "SPR, M13-C06 Fab over captured mutant", "description": "as §1"}, "[12]": {"molecular_target": "T13, hIGF-1R-Fc mutant SD003 (T188F) (human, UniProt P08069 31-933)", "T13 construct": "not shown: C-terminal human IgG1-Fc tag", "experiment": "SPR, M13-C06 Fab over captured mutant", "description": "as §1"}, "[13]": {"molecular_target": "T14, hIGF-1R-Fc mutant SD013 (D405K) (human, UniProt P08069 31-933)", "T14 construct": "not shown: C-terminal human IgG1-Fc tag", "experiment": "SPR, M13-C06 Fab over captured mutant", "description": "as §1"}, "[14]": {"molecular_target": "T15, hIGF-1R-Fc mutant SD014 (K412A_A413Q) (human, UniProt P08069 31-933)", "T15 construct": "not shown: C-terminal human IgG1-Fc tag", "experiment": "SPR, M13-C06 Fab over captured mutant", "description": "as §1"}, "[15]": {"molecular_target": "T16, hIGF-1R-Fc mutant SD001 (Y28A) (human, UniProt P08069 31-933)", "T16 construct": "not shown: C-terminal human IgG1-Fc tag", "experiment": "SPR, M13-C06 Fab over captured mutant", "description": "as §1"}, "[16]": {"molecular_target": "T17, hIGF-1R-Fc mutant SD011 (G285S_S286T) (human, UniProt P08069 31-933)", "T17 construct": "not shown: C-terminal human IgG1-Fc tag", "experiment": "SPR, M13-C06 Fab over captured mutant", "description": "as §1"}, "[17]": {"molecular_target": "T18, hIGF-1R-Fc mutant SD008 (S257F) (human, UniProt P08069 31-933)", "T18 construct": "not shown: C-terminal human IgG1-Fc tag", "experiment": "SPR, M13-C06 Fab over captured mutant", "description": "as §1"}, "[18]": {"molecular_target": "T19, hIGF-1R-Fc mutant SD005 (A217T) (human, UniProt P08069 31-933)", "T19 construct": "not shown: C-terminal human IgG1-Fc tag", "experiment": "SPR, M13-C06 Fab over captured mutant", "description": "as §1"}, "[19]": {"molecular_target": "T20, hIGF-1R-Fc mutant SD006 (A227K) (human, UniProt P08069 31-933)", "T20 construct": "also called SD0006; not shown: C-terminal human IgG1-Fc tag", "experiment": "SPR, M13-C06 Fab over captured mutant", "description": "as §1"}},
  "data": [
    {"binder": "B1", "values": [
      {"measurement": "binding result", "setting": "human INSR(28-956)-His10", "result": "no binding (tested: 2 µM-0.2 nM)"},
      {"measurement": "Kd", "setting": "[1]", "result": 1.3, "unit": "nM"},
      {"measurement": "Biacore Relative RUmax", "setting": "[2]", "result": 1.2},
      {"measurement": "Biacore Relative RUmax", "setting": "[3]", "result": 0.6},
      {"measurement": "Biacore Relative RUmax", "setting": "[4]", "result": 0.8},
      {"measurement": "Biacore Relative RUmax", "setting": "[5]", "result": 2},
      {"measurement": "Biacore Relative RUmax", "setting": "[6]", "result": 1.7},
      {"measurement": "Biacore Relative RUmax", "setting": "[7]", "result": 2},
      {"measurement": "Biacore Relative RUmax", "setting": "[8]", "result": 1.3},
      {"measurement": "Biacore Relative RUmax", "setting": "[9]", "result": 1.9},
      {"measurement": "Biacore Relative RUmax", "setting": "[10]", "result": 0.8},
      {"measurement": "Biacore Relative RUmax", "setting": "[11]", "result": 0.3},
      {"measurement": "Biacore Relative RUmax", "setting": "[12]", "result": 1},
      {"measurement": "Biacore Relative RUmax", "setting": "[13]", "result": 0.7},
      {"measurement": "Biacore Relative RUmax", "setting": "[14]", "result": 0.6},
      {"measurement": "Biacore Relative RUmax", "setting": "[15]", "result": 0.6},
      {"measurement": "Biacore Relative RUmax", "setting": "[16]", "result": 1.8},
      {"measurement": "Biacore Relative RUmax", "setting": "[17]", "result": 1.5},
      {"measurement": "Biacore Relative RUmax", "setting": "[18]", "result": 0.9},
      {"measurement": "Biacore Relative RUmax", "setting": "[19]", "result": 1.7}
    ]}
  ]
}
